Positions count from the first letter of the chain named. Numbers in names are those of the source. Values belong to the binder of their own block, whether it stands above or below them.
What was measured:
[1] = molecular target: Recombinant human c-Met Fc chimera (human) (UniProt P08581); assay: SPR, serine scan in the ECB15 context
human c-Met on cells [2] = molecular target: T1, human c-Met on cells (human, UniProt P08581 25-1390); assay: cell-based or functional assay
human c-Met on cells [3] = molecular target: T1, human c-Met on cells; assay: binding to NCI-H441 cells, anti-His fluorescence
Description: Purified FN3 domains (50 μL/well; 0 to 1000 nM) were added to the cells for 1 hour at 4° C. in duplicate plates. […] Cells were incubated with biotinylated-anti HIS antibody (diluted 1:160 in FACS stain buffer, 50 μL/well, R&D Systems, cat # BAM050) for 30 minutes at 4° C. […] Cells were washed three times with FACS stain buffer (150 μL/well) and left in FACS stain buffer (50 μL/well).

human c-Met on cells [4] = molecular target: T1, human c-Met on cells; assay: cell-based or functional assay; remark: listed apart in the source
human c-Met on cells [5] = molecular target: T1, human c-Met on cells; assay: cell-based or functional assay; remark: listed apart in the source

- Fold Change of KD against the parent [1]: 1 fold
- Kd [1]: 0.4 nM
- koff [1]: 0.000133 s⁻¹
- kon [1]: 351000 M⁻¹ s⁻¹
B1: ECB15 (designed binder, not shown: small tags and cut ends)
chain: MLPAPKNLVVSEVTEDSARLSWDDPWAFYESFLIQYQESEKVGEAIVLTVPGSERSYDLTGLKPGTEYTVSIYGVHNVYKDTNMRGLPLSAIFTTAPAPAPAPAPLPAPKNLVVSRVTEDSARLSWTAPDAAFDSFWIRYFEFLGSGEAIVLTVPGSERSYDLTGLKPGTEYVVNIMGVKGGKISPPLSAIFTT

- Fold Change of KD against the parent [1]: 0.75 fold
B2: A3 K78S (designed binder)
chain: LPAPKNLVVSEVTEDSARLSWDDPWAFYESFLIQYQESEKVGEAIVLTVPGSERSYDLTGLKPGTEYTVSIYGVHNVYKDTNMRGLPLSAIFTTAPAPAPAPAPLPAPKNLVVSRVTEDSARLSWTAPDAAFDSFWIRYFEFLGSGEAIVLTVPGSERSYDLTGLKPGTEYVVNIMGVKGGSISPPLSAIFTT

- Fold Change of KD against the parent [1]: 4.25 fold
B3: A3 P81S (designed binder)
chain: B2 chain with S182K, P185S

- Fold Change of KD against the parent [1]: 74.5 fold
B4: A3 W32S (designed binder)
chain: B2 chain with W136S, S182K

- Fold Change of KD against the parent [1]: 6.75 fold
B5: A3 L39S (designed binder)
chain: B2 chain with L143S, S182K

- Fold Change of KD against the parent [1]: 14.8 fold
B6: A3 N70S (designed binder)
chain: B2 chain with N174S, S182K

- Fold Change of KD against the parent [1]: 4.25 fold
B7: A3 G40S (designed binder)
chain: B2 chain with G144S, S182K

- Fold Change of KD against the parent [1]: 1790 fold
B8: A3 F38S (designed binder)
chain: B2 chain with F142S, S182K

- Fold Change of KD against the parent [1]: 68 fold
B9: A3 F36S (designed binder)
chain: B2 chain with F140S, S182K

- Fold Change of KD against the parent [1]: 9 fold
B10: A3 V68S (designed binder)
chain: B2 chain with V172S, S182K

- Inhibition of Proliferation of U87-MG cells (IC50) (human c-Met on cells [2]): 1.7 nM
- pMet inhibition in H441 cells (IC50) (human c-Met on cells [2]): 4.6 nM
B11: P114AR7P95-D3 (designed binder)
chain: LPAPKNLVVSRVTEDSARLSWTAPDAAFDSFWIRYFEFLGSGEAIVLTVPGSERSYDLTGLKPGTEYVVNIMGVKGGSISYPLSAIFTTHHHHHH

- Inhibition of Proliferation of U87-MG cells (IC50) (human c-Met on cells [2]): 1190 nM
- pMet inhibition in H441 cells (IC50) (human c-Met on cells [2]): 1.42 µM
B12: P114AR5P75-E9 (designed binder)
chain: B11 chain with W32F, F36D, G40R, V68W, N70T, M72L, S78L, I79V, Y81T

- Inhibition of Proliferation of U87-MG cells (IC50) (human c-Met on cells [2]): 17.4 nM
- pMet inhibition in H441 cells (IC50) (human c-Met on cells [2]): 9.8 nM
B13: P114AR7P95-B9 (designed binder)
chain: B11 chain with N70Q, M72L, Y81V

- Inhibition of Proliferation of U87-MG cells (IC50) (human c-Met on cells [2]): 124 nM
- pMet inhibition in H441 cells (IC50) (human c-Met on cells [2]): 155 nM
- EC50 (human c-Met on cells [3]): 5.9 nM
B14: P114AR7P92-G8 (designed binder)
chain: B11 chain with W32V, N70Q, M72L, S78Y, Y81I

- Inhibition of Proliferation of U87-MG cells (IC50) (human c-Met on cells [2]): 692 nM
- pMet inhibition in H441 cells (IC50) (human c-Met on cells [2]): 659 nM
- EC50 (human c-Met on cells [3]): 11.3 nM
B15: P114AR7P95-G7 (designed binder)
chain: B11 chain with F38L, G40S, S41T, Y81P

- Inhibition of Proliferation of U87-MG cells (IC50) (human c-Met on cells [2]): 19.4 nM
- pMet inhibition in H441 cells (IC50) (human c-Met on cells [2]): 19.5 nM
- EC50 (human c-Met on cells [3]): 1.4 nM
B16: P114AR7P95-D4 (designed binder)
chain: B11 chain with N70Q, M72L, S78Y, Y81I

- Inhibition of Proliferation of U87-MG cells (IC50) (human c-Met on cells [2]): 672 nM
- pMet inhibition in H441 cells (IC50) (human c-Met on cells [2]): 766 nM
- EC50 (human c-Met on cells [3]): 22 nM
B17: P114AR7P92-H5 (designed binder)
chain: B11 chain with F36L, G40L, S41G, N70Q, S78T, I79V, Y81P

- Inhibition of Proliferation of U87-MG cells (IC50) (human c-Met on cells [2]): 104 nM
- pMet inhibition in H441 cells (IC50) (human c-Met on cells [2]): 460 nM
- EC50 (human c-Met on cells [3]): 3.8 nM
B18: P114AR7P93-G8 (designed binder)
chain: B11 chain with G60D, V68G, N70T, M72N, S78R, I79V, Y81T

- Inhibition of Proliferation of U87-MG cells (IC50) (human c-Met on cells [2]): 196 nM
- pMet inhibition in H441 cells (IC50) (human c-Met on cells [2]): 124 nM
- EC50 (human c-Met on cells [3]): 3.4 nM
B19: P114AR7P94-E5 (designed binder)
chain: B11 chain with V68A, S78R, I79V, Y81V

- Inhibition of Proliferation of U87-MG cells (IC50) (human c-Met on cells [2]): 14.4 nM
- pMet inhibition in H441 cells (IC50) (human c-Met on cells [2]): 16 nM
- EC50 (human c-Met on cells [3]): 2.3 nM
B20: P114AR7P93-D11 (designed binder)
chain: B11 chain with N70G, M72N, S78Y

- Inhibition of Proliferation of U87-MG cells (IC50) (human c-Met on cells [2]): 281 nM
- pMet inhibition in H441 cells (IC50) (human c-Met on cells [2]): 210 nM
- EC50 (human c-Met on cells [3]): 4.1 nM
B21: P114AR7P95-H8 (designed binder)
chain: B11 chain with L39V, G40S, S41K, Y81P

- Inhibition of Proliferation of U87-MG cells (IC50) (human c-Met on cells [2]): 9.3 nM
- pMet inhibition in H441 cells (IC50) (human c-Met on cells [2]): 5 nM
- EC50 (human c-Met on cells [3]): 1.4 nM
B22: P114AR7P94-A3 (designed binder)
chain: B11 chain with S78K, Y81P
notes: also called P114AR7P95-A3; P114ARP94-A3

- Inhibition of Proliferation of U87-MG cells (IC50) (human c-Met on cells [2]): 2.7 nM
- pMet inhibition in H441 cells (IC50) (human c-Met on cells [2]): 8.3 nM
B23: P114AR7P92-F3 (designed binder)
chain: B11 chain with V68I, Y81H

- Inhibition of Proliferation of U87-MG cells (IC50) (human c-Met on cells [2]): 270 nM
- pMet inhibition in H441 cells (IC50) (human c-Met on cells [2]): 288 nM
- EC50 (human c-Met on cells [3]): 12.9 nM
B24: P114AR7P93-H9 (designed binder)
chain: B11 chain with N70Q, M72I, S78H, Y81L

- Inhibition of Proliferation of U87-MG cells (IC50) (human c-Met on cells [2]): 209 nM
- pMet inhibition in H441 cells (IC50) (human c-Met on cells [2]): 205 nM
- EC50 (human c-Met on cells [3]): 3.2 nM
B25: P114AR7P95-E3 (designed binder)
chain: B11 chain with N70Q, S78T, I79V, Y81P

- inhibition of c-Met phosphorylation in NCI-H292 cells (IC50) (human c-Met on cells [4]): 610 nM
- Inhibition of Proliferation of U87-MG cells (IC50) (human c-Met on cells [2]): 464 nM
- pMet inhibition in H441 cells (IC50) (human c-Met on cells [2]): 1.08 µM
- EC50 (human c-Met on cells [3]): 18.7 nM
- IC50 (nM) (ERK phosphorylation) (human c-Met on cells [5]): 2370 nM
B26: P114AR5P74-A5 (designed binder)
chain: B11 chain with F36D, F38V, L39V, G40V, S41G, V68Y, M72L, Y81V

- Inhibition of Proliferation of U87-MG cells (IC50) (human c-Met on cells [2]): 350 nM
- pMet inhibition in H441 cells (IC50) (human c-Met on cells [2]): 165 nM
- EC50 (human c-Met on cells [3]): 4.9 nM
B27: P114AR7P92-F6 (designed binder)
chain: B11 chain with M72L, S78G, I79L, Y81V

- Inhibition of Proliferation of U87-MG cells (IC50) (human c-Met on cells [2]): 130 nM
- pMet inhibition in H441 cells (IC50) (human c-Met on cells [2]): 188 nM
- EC50 (human c-Met on cells [3]): 4.4 nM
B28: P114AR7P95-F10 (designed binder)
chain: B11 chain with L39T, G40T, S41A, Y81P

Source: patent publication US20170305997A1 (Janssen / Centocor, published 2017)
